From patent US20250114450A1, “PHARMACEUTICAL COMBINATION CONTAINING ANTI-PD-1-ANTI-VEGFA BISPECIFIC ANTIBODY, AND USE THEREOF” (Akeso Biopharma, Inc., priority 2021, published 2025)
pKd: −log10 of the molar value.

Molecular target: FcγRI (UniProt P12314)
Experiment: BLI (Fortebio Octet), FcγRI immobilized on HIS1K sensor, antibody 3.12-50 nM, 1:1 fit

Chain of FcγRI (P12314 16-288 limits assumed): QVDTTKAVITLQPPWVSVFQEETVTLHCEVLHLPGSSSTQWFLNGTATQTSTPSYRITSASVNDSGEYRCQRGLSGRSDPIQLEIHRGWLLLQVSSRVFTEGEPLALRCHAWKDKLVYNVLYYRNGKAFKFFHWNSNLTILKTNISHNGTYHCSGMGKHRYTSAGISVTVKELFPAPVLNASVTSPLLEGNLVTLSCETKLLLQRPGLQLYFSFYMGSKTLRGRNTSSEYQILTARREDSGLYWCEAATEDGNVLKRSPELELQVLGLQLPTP

pKd: 8.21
Substance: Nivolumab (antibody)
